Measurements: patent US10156559B2, “Lipocalin fusion partners” (Fred Hutchinson Cancer Research Center, priority 2012, dated 2018)

B1: HMOX1: cytoplasmic enzyme, HMOX1, expressed as a Scn fusion and cleaved from Scn (protein, UniProt P09601 1-288, looked up)
Heme oxygenase 1: MERPQPDSMPQDLSEALKEATKEVHTQAENAEFMRNFQKGQVTRDGFKLVMASLYHIYVALEEEIERNKESPVFAPVYFPEELHRKAALEQDLAFWYGPRWQEVIPYTPAMQRYVKRLHEVGRTEPELLVAHAYTRYLGDLSGGQVLKKIAQKALDLPSSGEGLAFFTFPNIASATKFKQLYRSRMNSLEMTPAVRQRVIEEAKTAFLLNIQLFEELQELLTHDTKDQSPSRAPGLRQRASNKVQDSAPVETPRGKPPLNTRSQAPLLRWVLTLSFLVATVAVGLYAM
modifications: expressed as Scn fusion, cleaved
B2: Adv2: cytoplasmic viral protein Adv2 expressed as a Scn fusion and cleaved from Scn (protein, UniProt P68978 18-159, looked up)
Early E3 18.5 kDa glycoprotein: AKKVEFKEPACNVTFKSEANECTTLIKCTTEHEKLIIRHKDKIGKYAVYAIWQPGDTNDYNVTVFQGENRKTFMYKFPFYEMCDITMYMSKQYKLWPPQKCLENTGTFCSTALLITALALVCTLLYLKYKSRRSFIDEKKMP
modifications: expressed as Scn fusion, cleaved

Assay: SDS PAGE analysis of Scn fusion protein before and after cleavage
Type: physicochemical
Conditions: fusion protein cleaved from Scn, expressed in mammalian cell culture
From the text: The cloned knottin or library was cotransfected into HEK293 cells and media was collected as described (“Daedalus: A Robust, Turnkey Platform for Rapid Production of Decigram Quantities of Active Recombinant Proteins in Human Cell Lines Using Novel Lentiviral Vectors.” Bandaranayake A. D., et al., Nucleic Acids Res. (2011) 39(21):e143). Fusion protein was isolated using nickel IMAC and cleaved with recombinant TEV protease. Excess siderocalin was removed via size exclusion chromatography, a process which also allowed the buffer to be switched to 10 mM ammonium formate. The knottin containing fractions were then lyophilized.
(§1) FIG. 19 depicts the expression of a Scn fusion with a cytoplasmic viral protein Adv2 and the corresponding SDS PAGE analysis according to one aspect of the present disclosure. […] Additionally this fusion protein has further utility because it can be used to raise antibodies against the viral antigen in rats, mice or rabbits using the corresponding Scn ortholog.
as §1, with “21” for “19”, “knottin protein, Imperatoxin,” for “cytoplasmic viral protein Adv2”, “Additionally,” for “Additionally”

Molecule | stability of the protein after separation from Scn
B1 | stable even after separation from Scn
B2 | stable even after separation from Scn
